Test results published in paper PMC7242444, “Characterization of the zinc finger proteins ZMYM2 and ZMYM4 as novel B-MYB binding proteins” (Scientific Reports, 2020).

Target: T1, GFP-B-MYB (human, UniProt P10244 1-700)
T1 construct: B-MYB, human, full length, fused to eGFP; The truncated derivatives were cloned in peGFP-C1, 2 or 3, which would put GFP at the N-terminus; also called GFP/B-MYB fusion protein; peGFP-B-MYB; source: HEK293T, stably expressing (lentiviral) or transfected, in lysate
T1 sequence (looked up): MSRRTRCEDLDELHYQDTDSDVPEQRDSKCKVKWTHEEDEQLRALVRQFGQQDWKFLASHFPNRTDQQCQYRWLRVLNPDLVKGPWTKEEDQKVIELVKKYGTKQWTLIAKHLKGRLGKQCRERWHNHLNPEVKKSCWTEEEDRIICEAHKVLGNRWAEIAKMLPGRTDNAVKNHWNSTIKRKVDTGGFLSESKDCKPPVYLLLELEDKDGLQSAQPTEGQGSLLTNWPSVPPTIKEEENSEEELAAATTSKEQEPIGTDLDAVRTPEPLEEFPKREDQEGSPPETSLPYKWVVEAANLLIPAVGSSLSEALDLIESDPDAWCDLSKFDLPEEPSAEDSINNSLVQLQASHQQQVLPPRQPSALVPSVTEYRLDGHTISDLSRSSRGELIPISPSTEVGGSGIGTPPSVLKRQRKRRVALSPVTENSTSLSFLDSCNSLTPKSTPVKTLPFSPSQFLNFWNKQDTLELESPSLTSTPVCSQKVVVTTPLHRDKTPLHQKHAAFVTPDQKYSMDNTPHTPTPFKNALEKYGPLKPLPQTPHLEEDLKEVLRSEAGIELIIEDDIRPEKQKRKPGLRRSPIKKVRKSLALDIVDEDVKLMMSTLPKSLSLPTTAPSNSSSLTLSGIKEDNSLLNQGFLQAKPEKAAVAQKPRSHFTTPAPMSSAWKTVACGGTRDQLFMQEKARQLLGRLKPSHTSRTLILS
Experiment: co-IP; GFP-trap beads, 3 h at 4 °C, extracts of HEK293T cells in ELB buffer (50 mM Tris/HCl pH 7.5, 120 mM NaCl, 0.2% NP-40) expressing the GFP fusion bait; Western blot of bound proteins; in Fig. 3 cells pre-incubated with 10 μM BrdU and irradiated or not with UV-C
Conditions: partners not purified

B1: zinc finger MYM-type protein 4 (ZMYM4), endogenous (natural protein, human (endogenous in HEK293T), UniProt Q5VZL5 1-1548, looked up)
chain: MAEREVESGPRKRFEQKSGAVFDEIVENCGGIMDTEMSEDIDHNLTPTLDSMSYGMPNQTGSENSLLDEDDYFLNSGDLAGIPVVGSDNEDEQDFSSKDNLVSSIHTDDSLEVERRVTQHESDNENEIQIQNKLKKDFPKQFDQVSVFKSIRKDFSLVRENSKETFSGKEKNRDLTYEREKRLDKPHKDLDSRLKSSFFDKAANQVEETLHTHLPQTPETNFRDSSYPFANKESIGSELGNSFASNIRIKEEPLDDEYDKAMAPQQGLLDKIKDEPDNAQEYSHGQQQKTQEGELKISAVFSVSGSPLAPQLTTGFQPSLASSGMNKMLPSVPATAVRVSCSGCKKILQKGQTAYQRKGSTQLFCSTLCLTGYTVPPARPPPPLTKKTCSSCSKDILNPKDVISAQFENTTTSKDFCSQSCLSTYELKKKPIVTINTNSISTKCSMCQKNAVIRHEVNYQNVVHKLCSDACFSKFRSANNLTMNCCENCGGYCYSGSGQCHMLQIEGQSKKFCSSSCITAYKQKSAKITPCALCKSLRSSAEMIENTNSLGKTELFCSVNCLSAYRVKMVTSAGVQVQCNSCKTSAIPQYHLAMSDGSIRNFCSYSCVVAFQNLFNKPTGMNSSVVPLSQGQVIVSIPTGSTVSAGGGSTSAVSPTSISSSAAAGLQRLAAQSQHVGFARSVVKLKCQHCNRLFATKPELLDYKGKMFQFCGKNCSDEYKKINNVMAMCEYCKIEKIVKETVRFSGADKSFCSEGCKLLYKHDLAKRWGNHCKMCSYCLQTSPKLVQNNLGGKVEEFCCEECMSKYTVLFYQMAKCDACKRQGKLSESLKWRGEMKHFCNLLCILMFCNQQSVCDPPSQNNAANISMVQAASAGPPSLRKDSTPVIANVVSLASAPAAQPTVNSNSVLQGAVPTVTAKIIGDASTQTDALKLPPSQPPRLLKNKALLCKPITQTKATSCKPHTQNKECQTEDTPSQPQIIVVPVPVPVFVPIPLHLYTQYAPVPFGIPVPMPVPMLIPSSMDSEDKVTESIEDIKEKLPTHPFEADLLEMAEMIAEDEEKKTLSQGESQTSEHELFLDTKIFEKDQGSTYSGDLESEAVSTPHSWEEELNHYALKSNAVQEADSELKQFSKGETEQDLEADFPSDSFDPLNKGQGIQARSRTRRRHRDGFPQPRRRGRKKSIVAVEPRSLIQGAFQGCSVSGMTLKYMYGVNAWKNWVQWKNAKEEQGDLKCGGVEQASSSPRSDPLGSTQDHALSQESSEPGCRVRSIKLKEDILSCTFAELSLGLCQFIQEVRRPNGEKYDPDSILYLCLGIQQYLFENGRIDNIFTEPYSRFMIELTKLLKIWEPTILPNGYMFSRIEEEHLWECKQLGAYSPIVLLNTLLFFNTKYFQLKNVTEHLKLSFAHVMRRTRTLKYSTKMTYLRFFPPLQKQESEPDKLTVGKRKRNEDDEVPVGVEMAENTDNPLRCPVRLYEFYLSKCSESVKQRNDVFYLQPERSCVPNSPMWYSTFPIDPGTLDTMLTRILMVREVHEELAKAKSEDSDVELSD
notes: ZMYM4 (zinc finger MYM-type protein 4), endogenous in HEK293T cells; In extracts made without NEM the protein is de-SUMOylated; also called endogenous ZMYM4; source: endogenous, HEK293T lysate
In the case of B1, the “fold increase of binding after UV irradiation (against non-irradiated cells, densitometry)” value is reported as 4.1 fold.
